From patent US20120277164A1 (IMPERIAL INNOVATIONS, published 2012)
Square brackets hold non-standard residues; d marks the D form. * marks the point of attachment. Fmoc = O=C(OCC1c2ccccc2-c2ccccc21)*; Cbz = O=C(OCc1ccccc1)*; Bz = O=C(c1ccccc1)*; βAla = NCCC(=O)O

Columns and labels:
[1] = target: T1, Gadd45β/MKK7 complex (biotin-hGadd45β with coated GST-MKK7, ELISA format) (human) (UniProt O75293); assay: competition ELISA; coated MKK7 42 nM, biotin-hGadd45β 21 nM, competitor 42 nM nominal
T1 sequence (biotinylated (sites not stated), looked up) 1: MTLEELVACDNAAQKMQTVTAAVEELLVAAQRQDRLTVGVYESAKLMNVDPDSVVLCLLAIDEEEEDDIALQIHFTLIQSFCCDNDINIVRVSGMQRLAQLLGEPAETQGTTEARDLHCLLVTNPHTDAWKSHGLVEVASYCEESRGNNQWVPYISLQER
T1 sequence (biotinylated (sites not stated), looked up) 2: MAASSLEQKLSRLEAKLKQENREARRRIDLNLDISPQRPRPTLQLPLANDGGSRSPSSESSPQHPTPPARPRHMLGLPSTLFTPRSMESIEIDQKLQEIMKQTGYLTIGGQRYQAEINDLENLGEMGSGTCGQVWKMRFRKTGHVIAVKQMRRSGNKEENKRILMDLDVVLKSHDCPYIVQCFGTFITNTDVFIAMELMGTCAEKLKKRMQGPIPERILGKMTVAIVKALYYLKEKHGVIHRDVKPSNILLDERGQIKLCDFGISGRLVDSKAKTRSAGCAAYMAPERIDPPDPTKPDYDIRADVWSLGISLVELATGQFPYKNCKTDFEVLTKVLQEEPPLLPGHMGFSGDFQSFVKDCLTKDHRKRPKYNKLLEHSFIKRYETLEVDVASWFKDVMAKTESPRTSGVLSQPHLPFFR

[2] = target: T1, Gadd45β/MKK7 complex (biotin-hGadd45β with coated GST-MKK7, ELISA format) (human); assay: competition ELISA; coated GST-MKK7, biotin-hGadd45β; single dose
[3] = target: T1, Gadd45β/MKK7 complex (biotin-hGadd45β with coated GST-MKK7, ELISA format) (human); assay: derived from the in vitro ELISA competition IC50 (Gadd45β/MKK7)
[4] = target: T1, Gadd45β/MKK7 complex (biotin-hGadd45β with coated GST-MKK7, ELISA format) (human); assay: competition ELISA; coated GST-MKK7 42 nM, biotin-hGadd45β 21 nM
[5] = target: T2, Gadd45β/MKK7 complex (biotin-hGadd45β with coated GST-MKK7, ELISA format) (human, UniProt O75293 1-160; O14733 1-419, biotinylated (sites not given)); assay: competition ELISA; coated MKK7 42 nM, biotin-hGadd45β 21 nM, competitor 42 nM nominal
T2 construct: not shown: glutathione S-transferase (GST) fusion partner
T2 sequence (looked up) 1: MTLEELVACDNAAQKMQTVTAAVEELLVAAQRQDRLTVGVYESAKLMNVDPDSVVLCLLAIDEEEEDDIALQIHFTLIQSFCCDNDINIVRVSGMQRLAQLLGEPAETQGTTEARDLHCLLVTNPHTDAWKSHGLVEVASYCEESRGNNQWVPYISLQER
T2 sequence (looked up) 2: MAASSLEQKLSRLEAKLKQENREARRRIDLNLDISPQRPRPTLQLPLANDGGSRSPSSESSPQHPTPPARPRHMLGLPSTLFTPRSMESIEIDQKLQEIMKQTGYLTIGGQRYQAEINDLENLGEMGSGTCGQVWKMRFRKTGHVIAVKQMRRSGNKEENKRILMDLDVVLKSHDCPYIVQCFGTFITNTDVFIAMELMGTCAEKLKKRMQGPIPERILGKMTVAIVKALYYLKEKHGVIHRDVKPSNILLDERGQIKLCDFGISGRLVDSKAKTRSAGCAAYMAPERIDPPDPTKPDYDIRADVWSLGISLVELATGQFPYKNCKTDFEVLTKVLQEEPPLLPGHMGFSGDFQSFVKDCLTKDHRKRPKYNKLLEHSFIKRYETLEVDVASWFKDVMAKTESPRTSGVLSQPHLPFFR

[6] = target: T2, Gadd45β/MKK7 complex (biotin-hGadd45β …); assay: competition ELISA; coated GST-MKK7, biotin-hGadd45β; single dose
[7] = target: T2, Gadd45β/MKK7 complex (biotin-hGadd45β …); assay: as above; remark: listed apart in the source
[8] = target: T1, Gadd45β/MKK7 complex (biotin-hGadd45β with coated GST-MKK7, ELISA format) (human); assay: competition ELISA; coated MKK7, biotin-hGadd45β (FIG. 3C)

## Fmoc(βAla)2-YDHQ-NH2 as printed in row r19 of Table I
[1]
  % Inhibition of Gadd45β-MKK7 binding: 26%

## Fmoc-YDFQ-NH2
[2]
  % Inhibition of Gadd45β-MKK7 binding: 19%

## mDTP3 (Ac-D-Tyr-D-Arg-D-Phe-NH2) (peptide)
[3]
  Ligand Efficiency: -0.24
[4]
  IC50: 0.157 nM

## Cbz-YD(OMe)HQ-NH2 [Z-YD(OMe)HQ-NH2]
[2]
  % Inhibition of Gadd45β-MKK7 binding: 3%

## Ac-YDHQ-NH2 [Ac-YDHQ-NH2]
[2]
  % Inhibition of Gadd45β-MKK7 binding: 99%

## Bz-YDHQ-NH2 [Benzoic acid-YDHQ-NH2]
[2]
  % Inhibition of Gadd45β-MKK7 binding: 1%

## {Fmoc-βAla-βAla}-YDHF-NH2 (also called Fmoc-LTP1) [Fmoc(βAla)2-YDHF-NH2]
[5]
  % Inhibition of Gadd45β-MKK7 binding: 99%

## Ac-YEKF-NH2 [Ac-YEKF-NH2]
[6]
  % Inhibition of Gadd45β-MKK7 binding: 64%

## Ac-YERW-NH2 [Ac-YERW-NH2]
[6]
  % Inhibition of Gadd45β-MKK7 binding: 59%

## Ac-YEKW-NH2 [Ac-YEKW-NH2]
[6]
  % Inhibition of Gadd45β-MKK7 binding: 27%

B1: Fmoc(βAla)2-YDHY-NH2 (peptide)
peptide: {Fmoc-βAla-βAla}-YDHY-NH2
SMILES: NC(=O)[C@H](Cc1ccc(O)cc1)NC(=O)[C@H](Cc1c[nH]cn1)NC(=O)[C@H](CC(=O)O)NC(=O)[C@H](Cc1ccc(O)cc1)NC(=O)CCNC(=O)CCNC(=O)OCC1c2ccccc2-c2ccccc21
[5]
  % Inhibition of Gadd45β-MKK7 binding: 63%

## Ac-YEHF-NH2 [Ac-YEHF-NH2]
[7]
  % Inhibition of Gadd45β-MKK7 binding: 23%
[6]
  % Inhibition of Gadd45β-MKK7 binding: 52%

B2: Fmoc(βAla)2-YDHP-NH2 (peptide)
peptide: {Fmoc-βAla-βAla}-YDHP-NH2
SMILES: NC(=O)[C@@H]1CCCN1C(=O)[C@H](Cc1c[nH]cn1)NC(=O)[C@H](CC(=O)O)NC(=O)[C@H](Cc1ccc(O)cc1)NC(=O)CCNC(=O)CCNC(=O)OCC1c2ccccc2-c2ccccc21
[5]
  % Inhibition of Gadd45β-MKK7 binding: 16%

## Ac-YDRF-NH2 [Ac-YDRF-NH2]
[7]
  % Inhibition of Gadd45β-MKK7 binding: 19%
[6]
  % Inhibition of Gadd45β-MKK7 binding: 45%

B3: Fmoc(βAla)2-YDHC-NH2 (peptide)
peptide: {Fmoc-βAla-βAla}-YDHC-NH2
SMILES: NC(=O)[C@H](CS)NC(=O)[C@H](Cc1c[nH]cn1)NC(=O)[C@H](CC(=O)O)NC(=O)[C@H](Cc1ccc(O)cc1)NC(=O)CCNC(=O)CCNC(=O)OCC1c2ccccc2-c2ccccc21
[5]
  % Inhibition of Gadd45β-MKK7 binding: 44%

B4: Fmoc(βAla)2-YDHS-NH2 (peptide)
peptide: {Fmoc-βAla-βAla}-YDHS-NH2
SMILES: NC(=O)[C@H](CO)NC(=O)[C@H](Cc1c[nH]cn1)NC(=O)[C@H](CC(=O)O)NC(=O)[C@H](Cc1ccc(O)cc1)NC(=O)CCNC(=O)CCNC(=O)OCC1c2ccccc2-c2ccccc21
[5]
  % Inhibition of Gadd45β-MKK7 binding: 0%

B5: Fmoc(βAla)2-YDHL-NH2 (peptide)
peptide: {Fmoc-βAla-βAla}-YDHL-NH2
SMILES: CC(C)C[C@H](NC(=O)[C@H](Cc1c[nH]cn1)NC(=O)[C@H](CC(=O)O)NC(=O)[C@H](Cc1ccc(O)cc1)NC(=O)CCNC(=O)CCNC(=O)OCC1c2ccccc2-c2ccccc21)C(N)=O
[5]
  % Inhibition of Gadd45β-MKK7 binding: 33%

## {Fmoc-βAla-βAla}-YDHQ-NH2 [Fmoc(βAla)2-YDHQ-NH2]
[5]
  % Inhibition of Gadd45β-MKK7 binding: 0%

B6: Fmoc(βAla)2-YDHD-NH2 (peptide)
peptide: {Fmoc-βAla-βAla}-YDHD-NH2
SMILES: NC(=O)[C@H](CC(=O)O)NC(=O)[C@H](Cc1c[nH]cn1)NC(=O)[C@H](CC(=O)O)NC(=O)[C@H](Cc1ccc(O)cc1)NC(=O)CCNC(=O)CCNC(=O)OCC1c2ccccc2-c2ccccc21
[5]
  % Inhibition of Gadd45β-MKK7 binding: 0%

## Ac-YEHW-NH2 [Ac-YEHW-NH2]
[6]
  % Inhibition of Gadd45β-MKK7 binding: 64%

B7: Fmoc(βAla)2-YDHA-NH2 (peptide)
peptide: {Fmoc-βAla-βAla}-YDHA-NH2
SMILES: C[C@H](NC(=O)[C@H](Cc1c[nH]cn1)NC(=O)[C@H](CC(=O)O)NC(=O)[C@H](Cc1ccc(O)cc1)NC(=O)CCNC(=O)CCNC(=O)OCC1c2ccccc2-c2ccccc21)C(N)=O
[5]
  % Inhibition of Gadd45β-MKK7 binding: 15%

B8: Fmoc(βAla)2-YDHH-NH2 (peptide)
peptide: {Fmoc-βAla-βAla}-YDHH-NH2
SMILES: NC(=O)[C@H](Cc1c[nH]cn1)NC(=O)[C@H](Cc1c[nH]cn1)NC(=O)[C@H](CC(=O)O)NC(=O)[C@H](Cc1ccc(O)cc1)NC(=O)CCNC(=O)CCNC(=O)OCC1c2ccccc2-c2ccccc21
[5]
  % Inhibition of Gadd45β-MKK7 binding: 40%

B9: Fmoc(βAla)2-YDHM-NH2 (peptide)
peptide: {Fmoc-βAla-βAla}-YDHM-NH2
SMILES: CSCC[C@H](NC(=O)[C@H](Cc1c[nH]cn1)NC(=O)[C@H](CC(=O)O)NC(=O)[C@H](Cc1ccc(O)cc1)NC(=O)CCNC(=O)CCNC(=O)OCC1c2ccccc2-c2ccccc21)C(N)=O
[5]
  % Inhibition of Gadd45β-MKK7 binding: 14%

B10: Fmoc(βAla)2-YDHR-NH2 (peptide)
peptide: {Fmoc-βAla-βAla}-YDHR-NH2
SMILES: N=C(N)NCCC[C@H](NC(=O)[C@H](Cc1c[nH]cn1)NC(=O)[C@H](CC(=O)O)NC(=O)[C@H](Cc1ccc(O)cc1)NC(=O)CCNC(=O)CCNC(=O)OCC1c2ccccc2-c2ccccc21)C(N)=O
[1]
  % Inhibition of Gadd45β-MKK7 binding: 2%

## Ac-AERF-NH2 [Ac-AERF-NH2]
[2]
  % Inhibition of Gadd45β-MKK7 binding: 7%

## {3‑OH‑4MeO‑benzoic acid}-YDHQ-NH2 (not fully specified) [3-OH-4MeO-Benzoid acid-YDHQ-NH2]
[2]
  % Inhibition of Gadd45β-MKK7 binding: 7%

B11: DTP1, Acetyl-(D-Tyr)-(D-Asp)-(D-His)-(D-Phe)-NH2 (peptide)
peptide: Ac-[dY][dD][dH][dF]-NH2
SMILES: CC(=O)N[C@H](Cc1ccc(O)cc1)C(=O)N[C@H](CC(=O)O)C(=O)N[C@H](Cc1c[nH]cn1)C(=O)N[C@H](Cc1ccccc1)C(N)=O
[8]
  IC50: 0.22 nM

B12: Ac-YDHQLys(Z)-NH2 (peptide)
peptide: Ac-YDHQK(Cbz)-NH2
SMILES: CC(=O)N[C@@H](Cc1ccc(O)cc1)C(=O)N[C@@H](CC(=O)O)C(=O)N[C@@H](Cc1c[nH]cn1)C(=O)N[C@@H](CCC(N)=O)C(=O)N[C@@H](CCCCNC(=O)OCc1ccccc1)C(N)=O
[2]
  % Inhibition of Gadd45β-MKK7 binding: 2%

B13: Ac-YERFLys(Z)-NH2 (peptide)
peptide: Ac-YERFK(Cbz)-NH2
SMILES: CC(=O)N[C@@H](Cc1ccc(O)cc1)C(=O)N[C@@H](CCC(=O)O)C(=O)N[C@@H](CCCNC(=N)N)C(=O)N[C@@H](Cc1ccccc1)C(=O)N[C@@H](CCCCNC(=O)OCc1ccccc1)C(N)=O
[2]
  % Inhibition of Gadd45β-MKK7 binding: 6%

B14: Ac-YDHFLys(Z)-NH2 (peptide)
peptide: Ac-YDHFK(Cbz)-NH2
SMILES: CC(=O)N[C@@H](Cc1ccc(O)cc1)C(=O)N[C@@H](CC(=O)O)C(=O)N[C@@H](Cc1c[nH]cn1)C(=O)N[C@@H](Cc1ccccc1)C(=O)N[C@@H](CCCCNC(=O)OCc1ccccc1)C(N)=O
[2]
  % Inhibition of Gadd45β-MKK7 binding: 8%
